Values of other authors as cited in paper PMC8249329.

Biological target: ACE2 (Homo sapiens) (UniProt Q9BYF1)
Sequence (Q9BYF1 18-740): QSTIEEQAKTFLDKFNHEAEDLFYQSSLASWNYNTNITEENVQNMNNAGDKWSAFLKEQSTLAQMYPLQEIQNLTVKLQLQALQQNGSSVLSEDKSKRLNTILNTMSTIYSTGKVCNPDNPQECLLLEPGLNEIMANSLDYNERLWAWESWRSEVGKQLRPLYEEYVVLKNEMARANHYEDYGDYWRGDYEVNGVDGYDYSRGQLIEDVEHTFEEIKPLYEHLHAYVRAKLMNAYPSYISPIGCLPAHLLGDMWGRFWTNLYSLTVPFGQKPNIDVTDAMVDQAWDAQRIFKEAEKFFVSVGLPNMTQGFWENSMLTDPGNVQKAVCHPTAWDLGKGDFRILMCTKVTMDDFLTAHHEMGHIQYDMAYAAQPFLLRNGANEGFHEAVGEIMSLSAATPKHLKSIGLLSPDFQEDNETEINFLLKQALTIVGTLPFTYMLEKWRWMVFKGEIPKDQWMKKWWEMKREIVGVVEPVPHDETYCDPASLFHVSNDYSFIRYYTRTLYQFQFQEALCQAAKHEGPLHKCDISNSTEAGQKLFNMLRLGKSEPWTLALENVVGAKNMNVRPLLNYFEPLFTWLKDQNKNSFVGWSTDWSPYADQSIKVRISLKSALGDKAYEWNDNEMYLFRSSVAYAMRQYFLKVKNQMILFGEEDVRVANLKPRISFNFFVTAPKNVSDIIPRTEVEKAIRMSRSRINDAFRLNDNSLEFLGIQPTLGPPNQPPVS

Chain of HCoV-NL63 spike RBD (Q6Q1S2 481-616): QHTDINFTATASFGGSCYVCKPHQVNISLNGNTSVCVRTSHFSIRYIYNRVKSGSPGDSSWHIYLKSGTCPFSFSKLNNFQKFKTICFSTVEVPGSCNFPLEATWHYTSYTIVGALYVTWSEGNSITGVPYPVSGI

## HCoV-NL63 spike RBD (from UniProt Q6Q1S2)
  Kd: 35 nM
